Positions count from the first letter of the chain named. Numbered stars: 1 amine (or outer) side, 2 acyl side, 3 side chain; on linkers, the order of the positions; unused ones are H or OH. Square brackets hold non-standard residues; d marks the D form. * marks the point of attachment. octavalent 20 kDa PEG = 20 kDa PEG with eight arms, each linked to one peptide copy through Cys; tetravalent 20 kDa PEG = 20 kDa PEG with four arms, each linked to one peptide copy through Cys; trivalent 20 kDa PEG = 20 kDa PEG with three arms, each linked to one peptide copy through Cys; 13C1,2Ac = N-terminal acetyl group labelled with 13C at carbons 1 and 2, [13CH3][13C](=O)*; 15N‑F = phenylalanine labelled with 15N, O=C([C@H](Cc1ccccc1)[15NH][*:1])[*:2]; hArg = N=C(N)NCCCC[C@H](N)C(=O)O; 3IPA = not defined here
B1: SEQ ID NO 773 (peptide)
peptide: Ac-WVTHRLAGLLSASGGVVRC(20 kDa MeO‑PEG)NFVPTDVGPFAF-NH2
B2: SEQ ID NO 772 (peptide)
peptide: Ac-WVTHRLAGLLSASGGVVRCNFVPTDVGPFAF-NH2
B3: SEQ ID NO 781 (peptide)
peptide: Ac-WVTHRLAGLLSRSGGVVRC(trivalent 20 kDa PEG)NFVPTDVGPFAF-NH2
modifications: also: trivalent PEG joins three peptide copies
B4: SEQ ID NO 820 (peptide)
peptide: Ac-WVTHRLAGLLSRSGGVCRNNFVPTDVGPFAF-NH2
B5: SEQ ID NO 815 (peptide)
peptide: Ac-WVTHRLAGLLSQSGGVVRK(20 kDa MeO‑PEG)NFVPTDVGPFAF-NH2
B6: SEQ ID NO 782 (peptide)
peptide: Ac-WVTHRLAGLLSRSGGVVRC(tetravalent 20 kDa PEG)NFVPTDVGPFAF-NH2
modifications: also: tetravalent PEG joins four peptide copies
B7: SEQ ID NO 784 (peptide)
peptide: WVTHXLAGLLSXSGGVVRKNFVPTDVGPFAF
modifications: Ac-WVTH[hArg]LAGLLS[hArg]SGGVVRKNFVPTDVGPFAF-amide
B8: SEQ ID NO 789 (peptide)
peptide: B7 peptide with X12R
modifications: Ac-WVTH[hArg]LAGLLSRSGGVVRK^(20 kDa MeO-PEG)NFVPTDVGPFAF-amide
B9: SEQ ID NO 785 (peptide)
peptide: B7 peptide
modifications: Ac-WVTH[hArg]LAGLLS[hArg]SGGVVRK^(20 kDa MeO-PEG)NFVPTDVGPFAF-amide
B10: SEQ ID NO 796 (peptide)
peptide: B7 peptide with X5R
modifications: Ac-WVTHRLAGLLS[Cit]SGG VVRKNFVPTDVGPFAF-amide
B11: SEQ ID NO 788 (peptide)
peptide: B7 peptide with X12R
modifications: Ac-WVTH[hArg]LAGLLSRSGGVVRKNFVPTDVGPFAF-amide
B12: SEQ ID NO 790 (peptide)
peptide: B7 peptide
modifications: Ac-WVTH[Cit]LAGLLS[Cit]SGG VVRKNFVPTDVGPFAF-amide
B13: SEQ ID NO 787 (peptide)
peptide: B7 peptide with X5R
modifications: Ac-WVTHRLAGLLS[hArg]SGGVVRK^(20 kDa MeO-PEG)NFVPTDVGPFAF-amide
B14: SEQ ID NO 799 (peptide)
peptide: B7 peptide with X12R
modifications: Ac-WVTH[Cit]LAGLLSRSGGV VRK^(20 kDa MeO-PEG)NFVPTDVGPFAF-amide
B15: SEQ ID NO 786 (peptide)
peptide: B7 peptide with X5R
modifications: Ac-WVTHRLAGLLS[hArg]SGGVVRKNFVPTDVGPFAF-amide
B16: SEQ ID NO 798 (peptide)
peptide: B7 peptide with X12R
modifications: Ac-WVTH[Cit]LAGLLSRSGGV VRKNFVPTDVGPFAF-amide
B17: SEQ ID NO 797 (peptide)
peptide: B7 peptide with X5R
modifications: Ac-WVTHRLAGLLS[Cit]SGG VVRK^(20 kDa MeO-PEG)NFVPTDVGPFAF-amide
B18: SEQ ID NO 769 (peptide)
peptide: Ac-WVTHRLAGLLSRSGGVVRC(40 kDa branched MeO‑PEG2)NFVPTDVGPFAF-NH2
B19: SEQ ID NO 771 (peptide)
peptide: Ac-WVTHRLAGLLSRSGGVVRC(20 kDa NEM‑PEG)NFVPTDVGPFAF-NH2
B20: SEQ ID NO 817 (peptide)
peptide: Ac-WVTHQLAGLLSQSGGVVRK(20 kDa MeO‑PEG)NFVPTDVGPFAF-NH2
B21: SEQ ID NO 814 (peptide)
peptide: Ac-WVTHRLAGLLSQSGGVVRKNFVPTDVGPFAF-NH2
B22: SEQ ID NO 767 (peptide)
peptide: Ac-WVTHRLAGLLSRSGGVVRC(30 kDa MeO‑PEG)NFVPTDVGPFAF-NH2
B23: SEQ ID NO 768 (peptide)
peptide: Ac-WVTHRLAGLLSRSGGVVRC(20 kDa branched MeO‑PEG2)NFVPTDVGPFAF-NH2
B24: SEQ ID NO 776 (peptide)
peptide: Ac-WVTHRLAGLLS[dR]SGGVVRCNFVPTDVGPFAF-NH2
SMILES: CC(=O)N[C@@H](Cc1c[nH]c2ccccc12)C(=O)N[C@H](C(=O)N[C@H](C(=O)N[C@@H](Cc1c[nH]cn1)C(=O)N[C@@H](CCCNC(=N)N)C(=O)N[C@@H](CC(C)C)C(=O)N[C@@H](C)C(=O)NCC(=O)N[C@@H](CC(C)C)C(=O)N[C@@H](CC(C)C)C(=O)N[C@@H](CO)C(=O)N[C@H](CCCNC(=N)N)C(=O)N[C@@H](CO)C(=O)NCC(=O)NCC(=O)N[C@H](C(=O)N[C@H](C(=O)N[C@@H](CCCNC(=N)N)C(=O)N[C@@H](CS)C(=O)N[C@@H](CC(N)=O)C(=O)N[C@@H](Cc1ccccc1)C(=O)N[C@H](C(=O)N1CCC[C@H]1C(=O)N[C@H](C(=O)N[C@@H](CC(=O)O)C(=O)N[C@H](C(=O)NCC(=O)N1CCC[C@H]1C(=O)N[C@@H](Cc1ccccc1)C(=O)N[C@@H](C)C(=O)N[C@@H](Cc1ccccc1)C(N)=O)C(C)C)[C@@H](C)O)C(C)C)C(C)C)C(C)C)[C@@H](C)O)C(C)C
B25: SEQ ID NO 818 (peptide)
peptide: Ac-WVTHQLAGLLSQSGGVVRK(20 kDa MeO‑PEG)NFVPTDVGPFAF-NH2
B26: SEQ ID NO 778 (peptide)
peptide: {Ac-3IPA}-VTHRLAGLLSRSGGVVRCNFVPTDVGPFAF-NH2
modifications: reading uncertain; also: places 3IPA at position 1, printed as Ac-[3IPA]-VTHRLAGLLSRSGGVVRCNFVPTDVGPFAF-amide
B27: SEQ ID NO 764 (peptide)
peptide: Ac-WVTHRLAGLLSRSGGVVRCNFVPTDVGPFAF-NH2
B28: SEQ ID NO 816 (peptide)
peptide: Ac-WVTHQLAGLLSQSGGVVRKNFVPTDVGPFAF-NH2
B29: SEQ ID NO 783 (peptide)
peptide: Ac-WVTHRLAGLLSRSGGVVRC(octavalent 20 kDa PEG)NFVPTDVGPFAF-NH2
modifications: also: eight peptides linked via Cys to one octavalent 20 kDa PEG
B30: SEQ ID NO 779 (peptide)
peptide: {Ac-3IPA}-VTHRLAGLLSRSGGVVRC(20 kDa MeO‑PEG)NFVPTDVGPFAF-NH2
modifications: reading uncertain; also: places 3IPA at position 1, printed as Ac-[3IPA]-VTHRLAGLLSRSGGVVRC^(20 kDa MeO-PEG)NFVPTDVGPFAF-amide
B31: SEQ ID NO 775 (peptide)
peptide: Ac-WVTHRLAGLLSQSGGVVRC(20 kDa MeO‑PEG)NFVPTDVGPFAF-NH2
B32: SEQ ID NO 801 (peptide)
peptide: WVTHRLAGLLSRSGGVVRNCFVPTDVGPFAF
modifications: Ac-WVTHRLAGLLSRSGGVVRNC^(20 kDa MeO-PEG)FVPTDVGPFAF-amide
B33: SEQ ID NO 803 (peptide)
peptide: {13C1,2Ac}-WVTHRLAGLLSRSGGVVRK(20 kDa MeO‑PEG)NFVPTDVGPFA[15N‑F]-NH2
B34: SEQ ID NO 777 (peptide)
peptide: Ac-WVTHRLAGLLS[dR]SGGVVRC(MeO‑PEG 20 kDa)NFVPTDVGPFAF-NH2
B35: SEQ ID NO 770 (peptide)
peptide: Ac-WVTHRLAGLLSRSGGVVRC(20 kDa branched MeO‑PEG2)NFVPTDVGPFAF-NH2
B36: SEQ ID NO 765 (peptide)
peptide: Ac-WVTHRLAGLLSRSGGVVRC(5 kDa MeO‑PEG)NFVPTDVGPFAF-NH2
B37: SEQ ID NO 886 (peptide)
peptide: B7 peptide with R18X
modifications: Ac-WVTH[hCit]LAGLLS[hCit]SGGVV[hArg]KNFVPTDVGPFAF-NH2
B38: PEG-peptide of SEQ ID NO 885 (peptide)
peptide: Ac-WVTHQLAGLLSQSGGVV[hArg]KNFVPTDVGPFAF-NH2
modifications: also: PEG-conjugated, in most cases at Lys25
B39: SEQ ID NO 885 (peptide)
peptide: Ac-WVTHQLAGLLSQSGGVV[hArg]KNFVPTDVGPFAF-NH2
SMILES: CC(=O)N[C@@H](Cc1c[nH]c2ccccc12)C(=O)N[C@H](C(=O)N[C@H](C(=O)N[C@@H](Cc1c[nH]cn1)C(=O)N[C@@H](CCC(N)=O)C(=O)N[C@@H](CC(C)C)C(=O)N[C@@H](C)C(=O)NCC(=O)N[C@@H](CC(C)C)C(=O)N[C@@H](CC(C)C)C(=O)N[C@@H](CO)C(=O)N[C@@H](CCC(N)=O)C(=O)N[C@@H](CO)C(=O)NCC(=O)NCC(=O)N[C@H](C(=O)N[C@H](C(=O)N[C@@H](CCCCNC(=N)N)C(=O)N[C@@H](CCCCN)C(=O)N[C@@H](CC(N)=O)C(=O)N[C@@H](Cc1ccccc1)C(=O)N[C@H](C(=O)N1CCC[C@H]1C(=O)N[C@H](C(=O)N[C@@H](CC(=O)O)C(=O)N[C@H](C(=O)NCC(=O)N1CCC[C@H]1C(=O)N[C@@H](Cc1ccccc1)C(=O)N[C@@H](C)C(=O)N[C@@H](Cc1ccccc1)C(N)=O)C(C)C)[C@@H](C)O)C(C)C)C(C)C)C(C)C)[C@@H](C)O)C(C)C

These binders were tested against T1, CGRP1 receptor (CRLR/RAMP1 complex) of human neuroblastoma SK-N-MC cells (human, UniProt Q16602 23-461; O60894 27-148) (assay: cell-based or functional assay).
T1 sequence (Q16602 23-461, chain 1 of 2): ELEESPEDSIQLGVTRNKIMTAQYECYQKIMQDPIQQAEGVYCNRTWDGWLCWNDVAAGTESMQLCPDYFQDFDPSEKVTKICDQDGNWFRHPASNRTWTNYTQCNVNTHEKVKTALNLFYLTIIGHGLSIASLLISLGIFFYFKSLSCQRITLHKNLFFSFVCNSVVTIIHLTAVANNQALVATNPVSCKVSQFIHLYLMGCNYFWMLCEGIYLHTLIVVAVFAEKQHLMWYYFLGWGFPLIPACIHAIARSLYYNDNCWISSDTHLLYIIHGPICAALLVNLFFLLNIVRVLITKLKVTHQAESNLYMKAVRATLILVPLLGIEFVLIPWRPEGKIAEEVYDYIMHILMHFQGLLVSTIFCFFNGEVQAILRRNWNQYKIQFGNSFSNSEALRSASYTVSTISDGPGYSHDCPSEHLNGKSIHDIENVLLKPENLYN
T1 sequence (O60894 27-148, chain 2 of 2): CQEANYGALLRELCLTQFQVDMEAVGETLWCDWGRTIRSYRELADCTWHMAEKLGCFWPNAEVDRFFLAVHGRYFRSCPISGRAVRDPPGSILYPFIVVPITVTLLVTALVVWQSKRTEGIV

Binder | IC50 [nM]
B1 | 6.2
B2 | 2.75
B3 | 0.19
B4 | 0.36
B5 | 0.46
B6 | 0.08
B7 | 2.1
B8 | 0.36
B9 | 0.37
B10 | 0.58
B11 | 0.44
B12 | 1.7
B13 | 0.33
B14 | 2.08
B15 | 0.57
B16 | 0.57
B17 | 0.96
B18 | 33.4

Binder | IC50 [nM]
B19 | 0.3
B20 | 5.24
B21 | 0.47
B22 | 7.86
B23 | 23.8
B24 | 0.59
B25 | 7.18
B26 | 0.35
B27 | 0.91
B28 | 0.53
B29 | 1.4
B30 | 2.22
B31 | 4.69
B32 | 1.64
B33 | 3.28
B34 | 19.4
B35 | 0.17
B36 | 2.52

Target: T1, CGRP1 receptor (CRLR/RAMP1 complex) of …
Experiment: cell-based or functional assay
Remark: another data set of the same source

Binder | Peptide IC50 [nM] | PEG-peptide IC50 [nM]
B37 | 4.96 | 
B38 |  | 12.4
B39 | 1.42 | 
